Measurements from PMC10293011 (Nature Cancer, 2023).
Each block holds one binder with its values, some of them ahead of it. Non-standard residues stand in square brackets, D forms with d. No end group written: not given here. Phe(3,5-F2) = N[C@@H](Cc1cc(F)cc(F)c1)C(=O)O

Columns and labels:
Details in all cases: both partners purified
[1] = biological target: T1, TEAD2 (A217–D447), YAP-binding domain, His-tagged (human, UniProt Q15562 217-447); assay: 1D 19F NMR of the free peptides; 20 μM S2, 20 μM S3 and 10 μM TEAD2 in PBS (100% D2O), pH 7.4, 298 K; displacement by addition of 55 μM compound 2, GNE-7883 or pepYAP
T1 construct: The construct has a TEV site after the His tag; The tag is kept in the TR-FRET/HTRF assays (anti-His detection); Treated with 2.5% hydroxylamine; source: E. coli BL21 (DE3), autoinduction, purified (hydroxylamine treated, size exclusion); not shown: His6, N-terminal, kept

[2] = biological target: T1, TEAD2 (A217–D447), YAP-binding domain, …; assay: AlphaScreen or HTRF; site 2/site 3-specific HTRF: His-tagged TEAD preincubated 30 min with compounds in 50 mM HEPES pH 7.2, 100 mM NaCl, 0.01% Tween-20, 0.5 mg/ml bovine gamma globulin, 1 mM dithiothreitol; biotinylated probe added for 60 min; europium anti-His and streptavidin-XL665; room temperature
[3] = biological target: T2, TEAD3 (Q216–D435), YAP-binding domain, His-tagged (human, UniProt Q99594 216-435); assay: AlphaScreen or HTRF; TEAD–YAP TR-FRET: His-tagged TEAD (YAP-binding domain) with europium anti-His antibody, preincubated 30 min with small molecules; biotinylated YAP peptide (50–100) with streptavidin-XL665; 60 min, room temperature; read at 665 and 615 nm
T2 construct: The construct has a TEV site after the His tag; treated with 2.5% hydroxylamine; source: E. coli BL21 (DE3), autoinduction, purified (hydroxylamine treated, size exclusion); not shown: His6, N-terminal, kept
T2 sequence (Q99594 216-435): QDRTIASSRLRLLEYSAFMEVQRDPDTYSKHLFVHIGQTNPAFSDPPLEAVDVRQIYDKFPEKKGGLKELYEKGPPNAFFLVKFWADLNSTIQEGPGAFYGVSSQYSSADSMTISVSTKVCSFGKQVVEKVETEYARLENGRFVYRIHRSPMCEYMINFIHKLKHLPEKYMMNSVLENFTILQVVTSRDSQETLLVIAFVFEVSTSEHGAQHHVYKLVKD

T1 sequence (Q15562 217-447): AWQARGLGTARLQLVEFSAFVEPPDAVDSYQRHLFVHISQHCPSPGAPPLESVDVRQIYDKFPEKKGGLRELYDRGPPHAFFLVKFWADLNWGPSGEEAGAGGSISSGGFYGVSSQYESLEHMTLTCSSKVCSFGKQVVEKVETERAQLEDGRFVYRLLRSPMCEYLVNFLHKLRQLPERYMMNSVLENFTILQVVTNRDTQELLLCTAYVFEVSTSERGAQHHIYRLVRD

B1: pepYAP, YAP peptide (amino acids 60–100) (peptide)
peptide: DSETDLEALFNAVMNPKTANVPQTVPMRLRKLPDSFFKPPE
notes: source: synthetic peptide, bought: ABclonal
binding result [1]: binds

B2: biotinylated mouse vestigial-like protein 1 peptide, amino acids 20–51 (site 2 probe) (peptide, UniProt Q99NC0 20-51, looked up)
peptide: KTEWNAGSVIFTYFEGDINSMVDEHFSRALRN
modifications: also: biotin, position not given here
notes: mouse vestigial-like protein 1 (Vgll1), amino acids 20–51; also called mVgll1; Vgll1 peptide
binding result [2]: binds

B3: S2, 19F-labeled YAP peptide (residues 59–81) (peptide)
peptide: Ac-GDSETDLEAL[Phe(3,5-F2)]NAVMNPKTANVP
modifications: not fully specified
notes: YAP residues 59–81; Phe69 is 3,5-difluoro-phenylalanine; also called peptide S2; source: synthetic peptide, bought: ABclonal
binding result [1]: binds

The next lines start with the values.

binding result [3]: binds
B4: biotinylated YAP peptide (amino acids 50–100) (peptide, UniProt P46937 50-100, looked up)
peptide: AGHQIVHVRGDSETDLEALFNAVMNPKTANVPQTVPMRLRKLPDSFFKPPE
modifications: biotin (position not given)
notes: YAP (Yes-associated protein), amino acids 50–100; Held by streptavidin-XL665 in the assay; also called YAP 50–100

binding result [1]: binds
B5: S3, 19F-labeled YAP peptide (residues 80–100) (peptide)
peptide: Ac-VPQTVPMRLRKLPDS[Phe(3,5-F2)]FKPPE
modifications: not fully specified
notes: YAP residues 80–100; Phe95 is 3,5-difluoro-phenylalanine; also called peptide S3; source: synthetic peptide, bought: ABclonal
